Patent US20160376343A1 (NATIONAL INSTITUTE FOR BIOTECHNOLOGY IN THE NEGEV, published 2016)
Where a chain is given by its changes, count along the chain named. Numbers in names are those of the source.

B1: V1 expressed in E. coli (Trx-6xHis-tagged) (receptor)
chain: LRLLDHRALVCSQEGLNCTVKNSTCLDDSWIHPRNLTPSSPKNLQIQLHFAHTQQGDLLPVAHIEWTLQTDASILYLEGAELSVLQLNTNERLCVRFEFLSKLRHHHKRWRFTFSHFVVDPDQEYEVTVHHLPKPIPDGDPNHQSKNFLVPDCEDARMKVTTPCMSSGSLWDPNITVETLEAHQLRVSFTLWNESTHYQILLTSFPHMENHSCFEHMHHIPAPRPEEFHQRSNVTLTLSNLKGCCRHQVQIQPFFSSCLNDCLRHSATVSCPEMPDTPEPIPDYMPLW
notes: Tested as cleared E. coli lysate; not shown: N-terminal thioredoxin (Trx)-6xHistidine tag of pET32
B2: V3 K109R (Fc fusion)
chain: B1 chain with L9P, E14P, N43D, L59F, K108R, D122G, S239R, G243W, A267V
notes: Expressed in mammalian cells; not shown: human IgG1 engineered Fc from the mammalian expression vector
B3: V3 P10L (Fc fusion)
chain: B1 chain with E14P, N43D, L59F, D122G, S239R, G243W, A267V
notes: as for B2
B4: V3 W244G (Fc fusion)
chain: B1 chain with L9P, E14P, N43D, L59F, D122G, S239R, A267V
notes: as for B2
B5: V3M V268A (Fc fusion)
chain: B1 chain with L9P, E14P, N43D, L59F, D122G, S239R, G243W
notes: Expressed in mammalian cells; also called V3 V268A; not shown: human IgG1 engineered Fc from the mammalian expression vector
B6: V4 expressed in E. coli (Trx-6xHis-tagged) (receptor)
chain: B1 chain with E14P, N43D, L44I, L68P, K108R, S239R
notes: as for B1
B7: V5 expressed in E. coli (Trx-6xHis-tagged) (receptor)
chain: B1 chain with E14P, R96K, D155H, S239R
notes: as for B1
B8: V6 expressed in E. coli (Trx-6xHis-tagged) (receptor)
chain: B1 chain with N43D, D122G, D155H, S239R
notes: as for B1
B9: V7 expressed in E. coli (Trx-6xHis-tagged) (receptor)
chain: B1 chain with E14P, N43D, L59V, S239R
notes: as for B1
B10: V8 expressed in E. coli (Trx-6xHis-tagged) (receptor)
chain: B1 chain with N43D, L59F, S239R
notes: as for B1
B11: V9 expressed in E. coli (Trx-6xHis-tagged) (receptor)
chain: B1 chain with L9P, R96K, D155H, S239R
notes: as for B1
B12: V10 K109R (Fc fusion)
chain: B1 chain with L9P, E14P, N43D, L59V, K108R, D122G, D155H, A156P, S239R
notes: as for B2
B13: V10 V60F (Fc fusion)
chain: B1 chain with L9P, E14P, N43D, L59F, D122G, D155H, A156P, S239R
notes: as for B2
B14: V11 expressed in E. coli (Trx-6xHis-tagged) (receptor)
chain: B1 chain with N43D, L59F, Q123R, D155H, A156P, S239R
notes: as for B1
B15: V12 expressed in E. coli (Trx-6xHis-tagged) (receptor)
chain: B1 chain with L9P, E14P, N43D, L59F, K108R, H116R, D155H, A156P, S239R
notes: as for B1
B16: V13 expressed in E. coli (Trx-6xHis-tagged) (receptor)
chain: B1 chain with E14P, N43D, L59F, R96K, K108R, N193D, S239R, G243W
notes: as for B1
B17: V14 expressed in E. coli (Trx-6xHis-tagged) (receptor)
chain: B1 chain with E14P, N43D, L44V, Q55H, L59F, G139R, S239R, Q248H, A267V
notes: as for B1
B18: V15 expressed in E. coli (Trx-6xHis-tagged) (receptor)
chain: B1 chain with E14P, N43D, L44V, L59F, F99I, K108R, D122G, D155H, S239R, A267V
notes: as for B1
B19: V16 expressed in E. coli (Trx-6xHis-tagged) (receptor)
chain: B1 chain with L9P, N43D, L59F, S239R
notes: as for B1
B20: V17 expressed in E. coli (Trx-6xHis-tagged) (receptor)
chain: B1 chain with E14P, N43D, K102E, K108R, D122G, S239R
notes: as for B1
B21: V18 expressed in E. coli (Trx-6xHis-tagged) (receptor)
chain: B1 chain with E14P, N43D, L59F, N88D, K108R, D122G, S239R
notes: as for B1
B22: V19 expressed in E. coli (Trx-6xHis-tagged) (receptor)
chain: B1 chain with R7Q, N43D, L44I, K108R, D155H, S239R
notes: as for B1
B23: V20 expressed in E. coli (Trx-6xHis-tagged) (receptor)
chain: B1 chain with L9P, N43D, L44V, L59V, K108R, Q123R, D155H, A156P, S239R
notes: as for B1
B24: V21 expressed in E. coli (Trx-6xHis-tagged) (receptor)
chain: B1 chain with E14P, N43D, D122G, D155H, A156P, E181K, T203I, S239R
notes: as for B1
B25: hIL17RA-ECD variant V3 (Fc fusion)
chain: B1 chain with L9P, E14P, N43D, L59F, D122G, S239R, G243W, A267V
notes: also called hIL-17R-V3; hIL17R-V3; not shown: human IgG1 engineered Fc (reduced ADCC/CDC) from the expression vector
B26: hIL17RA-ECD variant V10 (Fc fusion)
chain: B1 chain with L9P, E14P, N43D, L59V, D122G, D155H, A156P, S239R
notes: also called V10M; not shown: human IgG1 engineered Fc (reduced ADCC/CDC) from the expression vector

Tests used:
[1] = target: T1, hIL-17A (human, UniProt Q16552 24-155); assay: ELISA on captured hIL-17A, cleared E. coli lysates
T1 construct: Bought protein
T1 sequence (Q16552 24-155 limits assumed): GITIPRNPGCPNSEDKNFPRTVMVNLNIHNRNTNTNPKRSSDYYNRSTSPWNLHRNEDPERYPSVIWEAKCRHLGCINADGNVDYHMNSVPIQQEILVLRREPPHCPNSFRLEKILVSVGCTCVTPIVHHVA

[2] = target: T1, hIL-17A; assay: ELISA on captured hIL-17A
Description: (§1) ELISA plates (Griener Microlon 96W) were incubated with 100 μl of 0.5 μg/ml goat α-hIL-17A antibodies (R&D Systems) for 1 hour, washed with PBS supplemented with 0.05% Tween-80 (PBST) and 100 μl of 0.35 μg/ml hIL-17A (R&D Systems or ProSpec Tany TechnoGene Ltd.) were added to the plate for an additional 1 hour. The plates were then washed with PBST and blocked by incubation with 100 μl of PBS supplemented with 3% skim milk for 1 hour. Following blocking, the plates were washed and incubated with 100 μl of the cleared lysate, cell media or purified protein generated (described above) at appropriate dilutions and shaken for 1 hour. hIL-17RA (R&D Systems) was applied at a concentration of 6.25 μg/ml as a positive control, and PBS supplemented with 1% BSA as a negative control. Plates were then washed with PBST, incubated with 100 μl of 0.05 μg/ml goat α-hIL-17RA antibodies (R&D Systems) followed by a secondary peroxidase-conjugated streptavidin (Jackson, 1:10000 dilution). Finally, 100 μl of the horseradish peroxidase (HRP) chromogenic 3,3′,5,5′-tetramethylbenzidine (TMB) substrate solution (Dako) were added. The reaction was stopped by the addition of 1 M sulfuric acid and recorded at 450 nm using a Tecan Infinite M200 plate reader.

[3] = target: T1, hIL-17A; assay: ELISA of cleared E. coli lysate on plate-captured hIL-17A, detected with biotinylated anti-hIL-17RA and streptavidin-HRP, OD 450 nm; concentration not given
Description: as §1

[4] = target: T1, hIL-17A; assay: SPR (ProteOn XPR36), receptor immobilised, hIL-17A as analyte
Description: The affinity of hIL-17A binding to hIL17RA-ECD variants was determined by SPR measurements on ProteOn XPR36 (Bio-Rad) instrument. All samples were in HBST buffer (10 mM HEPES with 0.15 M NaCl, 3.4 mM EDTA and 0.005% Tween-20, pH 7.2). A GLC Chip was air initialized and activated with EDC/S-NHS and […] from each of the hIL17RA-ECD variants were diluted in Acetate buffer pH 5.5 and immobilized onto the chip. The measured binding levels for WT hIL17RA-ECD, V3 and V10 were ˜5300RU, 6700RU and 7400RU, respectively. Following blockage of the unbound sites on the chip with Ethanolamine, the chip was flushed with HBST buffer and rotated. The hIL-17A was run at 25 μl/min. for 300 sec at various concentrations (50, 25, 12.5, 6.25 and 3.125 nM) followed by a 10-min. dissociation step. Binding parameters were determined using Langmuir single binding site model using the Bio-Rad's proteOn Manager Software V2.1.2.05.

Binder | binding result [1] | IL-17A binding relative to the WT [2] [%] | other results
B1 | binds |  | 
B2 |  | 45 | 
B3 |  | 85 | 
B4 |  | 65 | 
B5 |  | 80 | 
B6 | binds |  | 
B7 | binds |  | 
B8 |  |  | binding result [3]: binds
B9 | binds |  | 
B10 | binds |  | 
B11 |  |  | binding result [3]: binds
B12 |  | 80 | 
B13 |  | 10 | 
B14 | binds |  | 
B15 | binds |  | 
B16 | binds |  | 
B17 | binds |  | 
B18 | binds |  | 
B19 | binds |  | 
B20 | binds |  | 
B21 | binds |  | 
B22 | binds |  | 
B23 | binds |  | 
B24 | binds |  | 
B25 |  | 100 | Fold increase in affinity (against WT hIL17RA-ECD) [4]: 6 fold; Kd [4]: 0.443 nM; koff [4]: 7.51e-05 s⁻¹; kon [4]: 170000 M⁻¹ s⁻¹
B26 |  | 100 | Fold increase in affinity (against WT hIL17RA-ECD) [4]: 4.2 fold; Kd [4]: 0.624 nM; koff [4]: 0.000115 s⁻¹; kon [4]: 184000 M⁻¹ s⁻¹
